The values below come from publication PMC13071878 (Journal of Medicinal Chemistry, 2026).

Assay [1] concerns the target T1, human angiotensin-converting enzyme 1 (hACE1) (human, UniProt P12821 30-1256). Nature of the assay: enzyme inhibition assay. The note with it: both partners purified.
Assay [2] deals with T2, human angiotensin-converting enzyme 1 (human, UniProt P12821 30-1256).
T2 construct: also called hACE1; human ACE1 enzyme
In words: enzyme inhibition assay (fluorogenic substrate); 0.25 nM hACE1, 10 μM Mca-Arg-Pro-Pro-Gly-Phe-Ser-Ala-Phe-Lys(Dnp)-OH, MP 0.03 nM to 100 μM; 10 mM Tris-HCl pH 7.4, 300 mM NaCl, 100 μM ZnCl2, 0.1% BSA, 0.1% DMSO. The note with it: both partners purified.

Assay [3] concerns the target T1, human angiotensin-converting enzyme 1 …. In words: enzyme inhibition assay; 0.25 nM hACE1, 10 uM fluorogenic substrate Mca-Arg-Pro-Pro-Gly-Phe-Ser-Ala-Phe-Lys(Dnp)-OH, dilutions of inhibitor; 10 mM Tris-HCl pH 7.4, 300 mM NaCl, 100 uM ZnCl2, 0.1% BSA, 0.1% DMSO. The note with it: both partners purified.
Assay [4] concerns the target T3, biotinylated extracellular catalytic domain of human angiotensin-converting enzyme 2 (hACE2), produced in … (human, UniProt Q9BYF1 19-615).
T3 construct: also called biotinylated hACE2
In words: flow cytometry on cells; yeast surface titration: yeast cells displaying the ligand incubated with soluble biotinylated hACE2 (100 pM to 3 uM), at least 1 h, room temperature (25 °C, pH 7.4); binding/display MFI, one-site fit; apparent KD. The note with it: one partner purified. On the technique in general: Flow cytometry measures light scatter and fluorescence of single cells or particles in a stream.

In assay [5] the target is extracellular catalytic domain of human angiotensin-converting enzyme 2 (hACE2), produced in mammalian cells (human, UniProt Q9BYF1 19-615). In words: ITC; MicroCal iTC200, 25 °C, 100 mM Tris pH 7.4, 200 mM NaCl; hACE2 in the cell (6 or 7 uM), peptide in the syringe (60 or 70 uM); single-site model. The settings on record: both partners purified.
extracellular catalytic domain of human angiotensin-converting enzyme 2 (hACE2), produced in mammalian cells, sequence (Q9BYF1 19-615): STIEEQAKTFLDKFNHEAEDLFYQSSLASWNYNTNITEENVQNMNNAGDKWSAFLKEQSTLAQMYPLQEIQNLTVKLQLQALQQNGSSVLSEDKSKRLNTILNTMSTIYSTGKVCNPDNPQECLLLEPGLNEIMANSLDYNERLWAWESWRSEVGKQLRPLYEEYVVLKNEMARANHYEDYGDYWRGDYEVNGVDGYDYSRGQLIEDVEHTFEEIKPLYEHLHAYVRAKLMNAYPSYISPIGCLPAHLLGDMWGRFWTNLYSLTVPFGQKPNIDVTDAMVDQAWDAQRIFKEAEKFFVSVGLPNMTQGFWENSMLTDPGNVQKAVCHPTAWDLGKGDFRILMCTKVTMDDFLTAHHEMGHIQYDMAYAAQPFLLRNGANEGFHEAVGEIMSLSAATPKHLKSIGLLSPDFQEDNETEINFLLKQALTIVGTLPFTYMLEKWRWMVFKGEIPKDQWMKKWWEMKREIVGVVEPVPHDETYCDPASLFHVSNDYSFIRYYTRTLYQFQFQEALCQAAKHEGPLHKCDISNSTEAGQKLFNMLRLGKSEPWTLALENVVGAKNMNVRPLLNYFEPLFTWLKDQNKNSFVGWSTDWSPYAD

Bridges are numbered along the chain shown (N, C = ends). Where no end group is shown, it is not given here. Bounds are passed on as bounds.

T2 sequence (P12821 30-1256): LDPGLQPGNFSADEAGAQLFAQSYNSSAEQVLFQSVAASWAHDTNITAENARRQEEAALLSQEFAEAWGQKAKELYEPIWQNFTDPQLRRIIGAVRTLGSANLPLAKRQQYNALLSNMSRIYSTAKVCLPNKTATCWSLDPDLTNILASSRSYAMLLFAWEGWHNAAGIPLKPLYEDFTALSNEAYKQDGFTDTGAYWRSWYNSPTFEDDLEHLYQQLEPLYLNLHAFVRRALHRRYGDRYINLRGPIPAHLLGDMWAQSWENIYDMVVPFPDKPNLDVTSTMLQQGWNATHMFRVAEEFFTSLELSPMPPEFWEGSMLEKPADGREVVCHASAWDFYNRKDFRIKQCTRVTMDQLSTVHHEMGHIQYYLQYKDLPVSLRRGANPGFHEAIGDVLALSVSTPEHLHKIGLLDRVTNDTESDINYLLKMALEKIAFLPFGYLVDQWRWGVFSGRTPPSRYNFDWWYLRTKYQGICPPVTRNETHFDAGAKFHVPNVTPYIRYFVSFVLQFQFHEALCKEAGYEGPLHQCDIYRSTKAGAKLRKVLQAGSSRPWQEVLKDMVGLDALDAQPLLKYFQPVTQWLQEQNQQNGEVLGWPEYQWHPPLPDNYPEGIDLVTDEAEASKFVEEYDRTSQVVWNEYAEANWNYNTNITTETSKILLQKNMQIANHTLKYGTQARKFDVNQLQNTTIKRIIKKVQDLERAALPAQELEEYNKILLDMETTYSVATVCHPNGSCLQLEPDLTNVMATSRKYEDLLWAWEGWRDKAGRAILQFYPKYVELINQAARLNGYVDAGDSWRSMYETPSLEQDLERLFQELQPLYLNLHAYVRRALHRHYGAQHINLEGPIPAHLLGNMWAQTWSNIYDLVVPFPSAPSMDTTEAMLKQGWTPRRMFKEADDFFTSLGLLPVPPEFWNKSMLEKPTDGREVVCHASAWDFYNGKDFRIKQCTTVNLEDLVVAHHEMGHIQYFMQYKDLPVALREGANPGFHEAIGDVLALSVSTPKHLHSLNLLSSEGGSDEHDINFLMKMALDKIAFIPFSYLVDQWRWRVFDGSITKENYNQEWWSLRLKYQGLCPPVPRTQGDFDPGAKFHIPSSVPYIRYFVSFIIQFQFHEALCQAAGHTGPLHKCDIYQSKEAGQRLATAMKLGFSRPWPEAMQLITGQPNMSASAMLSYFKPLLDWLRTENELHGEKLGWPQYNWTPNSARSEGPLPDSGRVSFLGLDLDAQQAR
T1 sequence (P12821 30-1256): as above
T3 sequence (Q9BYF1 19-615): as the sequence (Q9BYF1 19-615) above

A word on the IC50: it is the concentration at which inhibition is half-maximal. The low end stands for inhibition by little substance, the high end for a need for much substance. The Ki is the dissociation constant of the complex between target and ligand, obtained from inhibition or displacement. Read a low Ki as higher affinity. As to GDYSHCSPLRYYPWWKCTYPDPEGGG (disulfide 6-17 (inferred), source: bought: Selleck Chemicals LLC) [DX600, disulfide-constrained cyclic peptide inhibitor of hACE2], in assay [1], the IC50 is more than 100 µM and the Ki is more than 100 µM.
Molecule ACEPLGYNLFLCSG (also called synthetic GR1.4) [GR1.4, synthetic one-ring macrocyclic peptide] yielded an inhibition constant Ki in assay [2] of more than 100 µM.
As to ACFFIGFNRWICSG (also: one-ring macrocycle, ring type and places not given here) [synthetic 'one-ring' macrocyclic peptide GR1.1], in assay [3], the IC50 is more than 100 µM.
ACFLRCHRDVKCWLWCSG (also called synthetic GR3.1.2) [GR3.1.2, synthetic isomer 2 of the two-ring macrocyclic peptide GR3.1] came in with a Ki in assay [2] of more than 100 µM.

B1: synthetic 'two-ring' macrocyclic peptide GR3.1.2 (isomer of GR3.1) (peptide)
peptide: ACFLRCHRDVKCWLWCSG
modifications: also: two-ring macrocycle, isomer of GR3.1, ring type and connectivity not given here
Molecule B1 came in with an IC50 in assay [3] of more than 100 µM.
ACFFIGFNRWICSG (also called synthetic GR1.1) [GR1.1, synthetic one-ring macrocyclic peptide] had a Ki in assay [2] of more than 100 µM.
As for ACEPLGFNRWICSG (also: one-ring macrocycle, closure not given here) [yeast-displayed 'one-ring' macrocyclic peptide GR1.3], in assay [4], the Kd came to 0.0538 µM.
For orientation: stoichiometry N means the number of molecules, sites or subunits per partner or assembly. In turn, ACEPLGYNLFLCSG (also: one-ring macrocycle, ring type and places not given here) [synthetic 'one-ring' macrocyclic peptide GR1.4] registered an IC50 in assay [3] of more than 100 µM. In assay [5], the “stoichiometry N” value came out at 1.4 sites.
